Test results from patent US8101373B2, “β-galactosidase donor fragments” (Discoverx Corporation, priority 2007, dated 2012).

Assays:
Assay type in all cases: cell-based
SSTR4 = biological target: T1, SSTR4 (Homo sapiens, UniProt P31391); test: PathHunter β-arrestin2-EA / GPCR-ED enzyme fragment complementation, SSTR4-ED fusion; conditions: saturating ligand
T1 construct: The entire GPCR coding regions were cloned downstream of the CMV promoter and upstream of the ED; expressed in transfected cells; host or cells: HEK293 or CHOK1 cells, retroviral infection (pLNCX2)
T1 sequence (P31391 whole entry, species assumed, the tested form may be a part): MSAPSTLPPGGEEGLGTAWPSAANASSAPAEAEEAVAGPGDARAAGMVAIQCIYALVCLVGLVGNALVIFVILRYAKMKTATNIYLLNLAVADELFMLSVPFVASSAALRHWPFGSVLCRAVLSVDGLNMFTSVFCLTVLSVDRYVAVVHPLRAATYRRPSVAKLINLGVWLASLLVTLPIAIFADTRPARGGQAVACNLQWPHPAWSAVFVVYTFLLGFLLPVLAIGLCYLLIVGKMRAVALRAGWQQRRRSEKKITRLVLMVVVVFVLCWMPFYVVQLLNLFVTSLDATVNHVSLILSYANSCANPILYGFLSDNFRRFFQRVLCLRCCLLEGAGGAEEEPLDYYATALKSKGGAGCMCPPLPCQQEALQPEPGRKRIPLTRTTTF
T1 sequence (P32121 whole entry partner, species assumed, the tested form may be a part): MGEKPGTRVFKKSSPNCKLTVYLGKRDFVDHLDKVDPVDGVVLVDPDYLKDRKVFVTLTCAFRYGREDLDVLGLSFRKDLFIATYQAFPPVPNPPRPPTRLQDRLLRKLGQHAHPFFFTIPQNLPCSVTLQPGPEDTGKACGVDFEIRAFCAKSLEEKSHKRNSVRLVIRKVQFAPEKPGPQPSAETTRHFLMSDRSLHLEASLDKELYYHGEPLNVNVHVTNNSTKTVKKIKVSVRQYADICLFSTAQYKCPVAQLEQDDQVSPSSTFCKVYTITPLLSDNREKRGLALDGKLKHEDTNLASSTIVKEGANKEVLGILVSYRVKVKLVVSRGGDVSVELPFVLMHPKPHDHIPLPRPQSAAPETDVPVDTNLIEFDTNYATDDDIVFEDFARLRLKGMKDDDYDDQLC
Text: The cells used were HEK293 and CHOK1 cells. […] The viral plasmid was the PLNCX2 vector from Clontech. The plasmid includes sufficient retroviral sequences to enable viral production in the appropriate packaging cell lines. The plasmid also includes the neomycin antibiotic resistance gene and a CMV promoter that is used to drive expression of the target ED fusion. […] The ED is fused at the intracellular terminus, i.e., C-terminus of the proteins.
Preparation of Detection Reagents—The detection reagents must be prepared as a working solution prior to use, and once prepared are stable for at least 24 hours at room temperature with no impact on assay performance. The detection reagents consist of the substrate and co-factors for chemiluminescence signal detection, as well as the reagents necessary for selective cell permeabilization. Working solution is prepared by combining PathHunter™ Cell Assay Buffer (DiscoveRx, Inc., Fremont, Calif.), Galacton Star® and Emerald II® reagent to 25 μl of cells+compound. reagents (ABI, Bedford, Mass.) at a ratio of 19:1:5.
The fourth column indicates the fold induction for each of the constructs, where saturating conditions of the ligand were employed.

CHRM2 = biological target: T2, CHRM2 (Homo sapiens, UniProt P08172); test: PathHunter β-arrestin2-EA / GPCR-ED enzyme fragment complementation, CHRM2-ED fusion; conditions: saturating ligand
T2 construct: The entire GPCR coding regions were cloned downstream of the CMV promoter and upstream of the ED; expressed in transfected cells; host or cells: HEK293 or CHOK1 cells, retroviral infection (pLNCX2)
T2 sequence (P08172 whole entry, species assumed, the tested form may be a part): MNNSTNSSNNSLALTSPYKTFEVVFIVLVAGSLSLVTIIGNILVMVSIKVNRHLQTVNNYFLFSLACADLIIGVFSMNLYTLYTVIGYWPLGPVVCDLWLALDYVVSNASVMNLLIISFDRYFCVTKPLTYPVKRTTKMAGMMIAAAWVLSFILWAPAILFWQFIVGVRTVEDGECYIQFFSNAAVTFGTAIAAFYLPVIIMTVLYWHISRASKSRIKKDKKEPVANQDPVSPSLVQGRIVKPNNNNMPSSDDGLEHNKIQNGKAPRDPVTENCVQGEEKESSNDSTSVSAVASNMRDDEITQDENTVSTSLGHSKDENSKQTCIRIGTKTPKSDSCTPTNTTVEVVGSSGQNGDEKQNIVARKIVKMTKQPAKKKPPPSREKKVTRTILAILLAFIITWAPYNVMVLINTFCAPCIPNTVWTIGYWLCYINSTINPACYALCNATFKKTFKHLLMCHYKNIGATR
T2 sequence (P32121 whole entry partner, species assumed, the tested form may be a part): as the sequence (P32121 whole entry partner, species assumed, the tested form may be a part) above
Text: (§1) The following are the directions for performing the determinations of the response to inducing agents and comparing the prior art ED (pK1) to an ED of the subject invention (pK2):
(§2) The cells used were HEK293 and CHOK1 cells. Following substantially the procedures described in U.S. patent application Ser. No. 10/229,247, filed Aug. 27, 2002, and U.S. patent application Ser. No. 11/132,764 (Publication no. 2005/0287522), filed May 18, 2005, whose disclosures are specifically incorporated by reference, each of the cell lines was infected with retroviral constructs. The viral plasmid was the PLNCX2 vector from Clontech. The plasmid includes sufficient retroviral sequences to enable viral production in the appropriate packaging cell lines. The plasmid also includes the neomycin antibiotic resistance gene and a CMV promoter that is used to drive expression of the target ED fusion. […] The ED is fused at the intracellular terminus, i.e., C-terminus of the proteins.
(§3) Preparation of Detection Reagents—The detection reagents must be prepared as a working solution prior to use, and once prepared are stable for at least 24 hours at room temperature with no impact on assay performance. The detection reagents consist of the substrate and co-factors for chemiluminescence signal detection, as well as the reagents necessary for selective cell permeabilization. […]

CRTH2 = biological target: T3, CRTH2 (Homo sapiens, UniProt Q9Y5Y4); test: PathHunter β-arrestin2-EA / GPCR-ED enzyme fragment complementation, CRTH2-ED fusion; conditions: saturating ligand
T3 construct: The entire GPCR coding regions were cloned downstream of the CMV promoter and upstream of the ED; expressed in transfected cells; host or cells: HEK293 or CHOK1 cells, retroviral infection (pLNCX2)
T3 sequence (Q9Y5Y4 whole entry, species assumed, the tested form may be a part): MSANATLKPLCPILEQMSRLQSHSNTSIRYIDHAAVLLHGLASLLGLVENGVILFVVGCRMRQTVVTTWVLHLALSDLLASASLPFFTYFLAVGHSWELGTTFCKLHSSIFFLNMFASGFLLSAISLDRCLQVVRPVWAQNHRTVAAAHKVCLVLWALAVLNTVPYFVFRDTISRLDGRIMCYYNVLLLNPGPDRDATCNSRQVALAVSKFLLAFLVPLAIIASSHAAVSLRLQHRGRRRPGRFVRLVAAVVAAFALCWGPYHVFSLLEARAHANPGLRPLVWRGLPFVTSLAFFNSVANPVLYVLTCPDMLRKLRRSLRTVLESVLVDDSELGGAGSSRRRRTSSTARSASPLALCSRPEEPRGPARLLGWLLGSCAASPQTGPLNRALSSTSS
T3 sequence (P32121 whole entry partner, species assumed, the tested form may be a part): as the sequence (P32121 whole entry partner, species assumed, the tested form may be a part) above
Text: as §1, §2, §3

P2RY6 = biological target: T4, P2RY6 (Homo sapiens, UniProt Q15077); test: PathHunter β-arrestin2-EA / GPCR-ED enzyme fragment complementation, P2RY6-ED fusion; conditions: saturating ligand
T4 construct: The entire GPCR coding regions were cloned downstream of the CMV promoter and upstream of the ED; expressed in transfected cells; host or cells: HEK293 or CHOK1 cells, retroviral infection (pLNCX2)
T4 sequence (Q15077 whole entry, species assumed, the tested form may be a part): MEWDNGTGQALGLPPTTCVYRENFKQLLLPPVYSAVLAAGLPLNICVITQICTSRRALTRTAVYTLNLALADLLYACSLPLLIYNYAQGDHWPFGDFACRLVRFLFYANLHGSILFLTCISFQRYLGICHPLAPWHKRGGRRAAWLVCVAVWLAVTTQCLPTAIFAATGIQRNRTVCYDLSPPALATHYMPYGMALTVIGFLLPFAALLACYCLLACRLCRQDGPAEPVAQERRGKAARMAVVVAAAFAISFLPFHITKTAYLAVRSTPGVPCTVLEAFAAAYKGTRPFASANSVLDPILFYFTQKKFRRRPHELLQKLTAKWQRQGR
T4 sequence (P32121 whole entry partner, species assumed, the tested form may be a part): as the sequence (P32121 whole entry partner, species assumed, the tested form may be a part) above
Text: as §1, §2, §3

CCR6 = biological target: T5, CCR6 (Homo sapiens, UniProt P51684); test: PathHunter β-arrestin2-EA / GPCR-ED enzyme fragment complementation, CCR6-ED fusion; conditions: saturating ligand
T5 construct: The entire GPCR coding regions were cloned downstream of the CMV promoter and upstream of the ED; expressed in transfected cells; host or cells: HEK293 or CHOK1 cells, retroviral infection (pLNCX2)
T5 sequence (P51684 whole entry, the tested form may be a part): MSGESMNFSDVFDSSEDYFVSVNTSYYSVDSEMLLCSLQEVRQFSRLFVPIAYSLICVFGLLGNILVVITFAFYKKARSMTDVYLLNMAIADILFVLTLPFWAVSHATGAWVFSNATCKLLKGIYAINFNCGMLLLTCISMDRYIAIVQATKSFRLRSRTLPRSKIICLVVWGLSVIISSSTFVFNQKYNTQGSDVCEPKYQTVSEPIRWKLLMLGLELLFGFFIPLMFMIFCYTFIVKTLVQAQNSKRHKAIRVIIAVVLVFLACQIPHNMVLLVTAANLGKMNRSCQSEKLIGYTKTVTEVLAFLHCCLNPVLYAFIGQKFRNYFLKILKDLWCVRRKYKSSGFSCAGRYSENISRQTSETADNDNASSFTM
T5 sequence (P32121 whole entry partner, the tested form may be a part): as the sequence (P32121 whole entry partner, species assumed, the tested form may be a part) above
Text: as §1, §2, §3

PTHR2 = biological target: T6, PTHR2 (Homo sapiens, UniProt P49190); test: PathHunter β-arrestin2-EA / GPCR-ED enzyme fragment complementation, PTHR2-ED fusion; conditions: PTHR2 fused to PK2 ED; saturating ligand
T6 construct: The entire GPCR coding regions were cloned downstream of the CMV promoter and upstream of the ED; expressed in transfected cells; host or cells: HEK293 or CHOK1 cells, retroviral infection (pLNCX2)
T6 sequence (P49190 25-550, species assumed): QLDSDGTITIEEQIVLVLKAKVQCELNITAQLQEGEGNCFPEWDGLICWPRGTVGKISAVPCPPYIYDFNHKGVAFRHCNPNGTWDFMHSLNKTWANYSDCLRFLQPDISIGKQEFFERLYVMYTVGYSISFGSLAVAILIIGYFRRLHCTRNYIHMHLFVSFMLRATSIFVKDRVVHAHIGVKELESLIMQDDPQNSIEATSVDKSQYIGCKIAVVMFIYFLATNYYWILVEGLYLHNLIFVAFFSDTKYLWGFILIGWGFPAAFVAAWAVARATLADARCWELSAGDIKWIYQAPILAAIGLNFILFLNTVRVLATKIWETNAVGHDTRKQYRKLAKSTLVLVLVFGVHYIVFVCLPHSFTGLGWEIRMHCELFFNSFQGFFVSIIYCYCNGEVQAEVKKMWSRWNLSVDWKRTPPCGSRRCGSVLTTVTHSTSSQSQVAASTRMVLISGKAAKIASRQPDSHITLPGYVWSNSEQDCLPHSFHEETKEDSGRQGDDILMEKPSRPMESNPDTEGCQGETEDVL
T6 sequence (P32121 whole entry partner, species assumed, the tested form may be a part): as the sequence (P32121 whole entry partner, species assumed, the tested form may be a part) above
Text: as §1, §2
Preparation of Detection Reagents—The detection reagents must be prepared as a working solution prior to use, and once prepared are stable for at least 24 hours at room temperature with no impact on assay performance. The detection reagents consist of the substrate and co-factors for chemiluminescence signal detection, as well as the reagents necessary for selective cell permeabilization. Working solution is prepared by combining PathHunter™ Cell Assay Buffer (DiscoveRx, Inc., Fremont, Calif.), Galacton Star® and Emerald II® reagent […]. reagents (ABI, Bedford, Mass.) at a ratio of 19:1:5. Sufficient reagent is provided in each kit to perform the indicated number of assays in a 384-well, full-volume microplate assuming an addition of 12 μl of detection reagent per well or in a 96-well, full-volume microplate assuming an addition of 50 μl of detection reagent per well. […]

SALPR = biological target: T7, SALPR (Homo sapiens, UniProt Q9NSD7); test: PathHunter β-arrestin2-EA / GPCR-ED enzyme fragment complementation, SALPR-ED fusion; conditions: saturating ligand
T7 construct: The entire GPCR coding regions were cloned downstream of the CMV promoter and upstream of the ED; expressed in transfected cells; host or cells: HEK293 or CHOK1 cells, retroviral infection (pLNCX2)
T7 sequence (Q9NSD7 whole entry, species assumed, the tested form may be a part): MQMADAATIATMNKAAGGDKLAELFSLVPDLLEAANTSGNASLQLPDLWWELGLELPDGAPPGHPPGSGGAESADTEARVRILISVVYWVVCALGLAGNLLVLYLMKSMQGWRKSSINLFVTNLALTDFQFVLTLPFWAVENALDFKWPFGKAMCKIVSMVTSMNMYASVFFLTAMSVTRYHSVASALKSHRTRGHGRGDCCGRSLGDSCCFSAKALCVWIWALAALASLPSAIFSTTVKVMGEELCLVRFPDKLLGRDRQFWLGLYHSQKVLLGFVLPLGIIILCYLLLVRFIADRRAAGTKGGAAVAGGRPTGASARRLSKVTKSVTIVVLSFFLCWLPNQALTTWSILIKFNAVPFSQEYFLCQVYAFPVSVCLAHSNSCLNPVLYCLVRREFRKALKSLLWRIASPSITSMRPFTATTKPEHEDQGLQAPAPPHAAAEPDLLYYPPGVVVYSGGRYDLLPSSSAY
T7 sequence (P32121 whole entry partner, species assumed, the tested form may be a part): as the sequence (P32121 whole entry partner, species assumed, the tested form may be a part) above
Text: as §1, §2, §3

CCR4 = biological target: T8, CCR4 (Homo sapiens, UniProt P51679); test: PathHunter β-arrestin2-EA / GPCR-ED enzyme fragment complementation, CCR4-ED fusion; conditions: saturating ligand
T8 construct: The entire GPCR coding regions were cloned downstream of the CMV promoter and upstream of the ED; expressed in transfected cells; host or cells: HEK293 or CHOK1 cells, retroviral infection (pLNCX2)
T8 sequence (P51679 whole entry, the tested form may be a part): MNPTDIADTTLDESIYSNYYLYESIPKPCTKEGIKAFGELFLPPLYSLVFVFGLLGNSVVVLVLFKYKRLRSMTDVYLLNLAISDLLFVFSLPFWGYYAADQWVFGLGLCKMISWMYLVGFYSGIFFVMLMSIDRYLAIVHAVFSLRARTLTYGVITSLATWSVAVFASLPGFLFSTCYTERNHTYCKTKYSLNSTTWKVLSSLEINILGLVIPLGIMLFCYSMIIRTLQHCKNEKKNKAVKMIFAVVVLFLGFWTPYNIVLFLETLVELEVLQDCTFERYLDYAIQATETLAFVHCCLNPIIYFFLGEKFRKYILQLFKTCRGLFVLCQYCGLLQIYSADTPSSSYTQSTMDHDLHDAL
T8 sequence (P32121 whole entry partner, the tested form may be a part): as the sequence (P32121 whole entry partner, species assumed, the tested form may be a part) above
Text: as §1, §2, §3

## COC(=O)[C@H](CCCN=C(N)N)NC(=O)CCCc1c(-c2ccccc2)[nH]c2c(F)cc(F)cc12 [L803,087]
SSTR4; SSTR4 fused to PK1 ED
  Fold induct.: 1.8 fold
SSTR4; SSTR4 fused to PK2 ED
  Fold induct.: 2.1 fold

## C[N+](C)(C)CC#CCN1CCCC1=O [Oxotremorine M]
CHRM2; CHRM2 fused to PK2 ED
  Fold induct.: 6.1 fold

## O=C1CCCN1CC#CCN1CCCC1 [Oxotremorine]
CHRM2; CHRM2 fused to PK1 ED
  Fold induct.: 1.6 fold

## CCCCC[C@H](O)/C=C/[C@H]1C(=O)C[C@H](O)[C@@H]1C/C=C\CCCC(=O)O [Prostaglandin D2]
CRTH2; CRTH2 fused to PK1 ED
  Fold induct.: none
CRTH2; CRTH2 fused to PK2 ED
  Fold induct.: 2.6 fold

## O=c1ccn([C@@H]2O[C@H](COP(=O)(O)OP(=O)(O)O)[C@@H](O)[C@H]2O)c(=O)[nH]1 [UDP]
P2RY6; P2RY6 fused to PK1 ED
  Fold induct.: 1.3 fold
P2RY6; P2RY6 fused to PK2 ED
  Fold induct.: 1.9 fold

## CCL20
CCR6; CCR6 fused to PK1 ED
  Fold induct.: 1.4 fold
CCR6; CCR6 fused to PK2 ED
  Fold induct.: 6.5 fold

## PTH (1-34)
PTHR2
  Fold induct.: 72.9 fold

## PTHRP
PTHR2
  Fold induct.: none

## TIP39
PTHR2
  Fold induct.: 2.8 fold

B1: Relaxin-3 (protein)
chain: RAAPYGVRLCGREFIRAVIFTCGGSRWRRSDILAHEAMGDTFPDADADEDSLAGELDEAMGSSEWLALTKSPQAFYRGRPSWQGTPGVLRGSRDVLAGLSSSCCKWGCSKSEISSLC
notes: ligand employed for SALPR
SALPR; SALPR fused to PK1 ED
  Fold induct.: none
SALPR; SALPR fused to PK2 ED
  Fold induct.: 1.8 fold

B2: CCL22 (protein)
chain: GPYGANMEDSVCCRDYVRYRLPLRVVKHFYWTSDSCPRPGVVLLTFRDKEICADPRVPWVKMILNKLSQ
notes: ligand employed for CCR4
CCR4; CCR4 fused to PK1 ED
  Fold induct.: 18.9 fold
CCR4; CCR4 fused to PK2 ED
  Fold induct.: 3 fold
